assay: soluble on expression in E. coli; label from the status in PepcDB or PDB records

Sequence	soluble on expression in E. coli
MGSSHHHHHHSSGRENLYFQGHMNRTLYTLLFHLGLPLVALRLWWRARQAPAYAKRIGERFSLSLPEVPPGGIWVHAVSVGESIAAAPMVRALLERHPQLPVTVTCMTPTGSERIRALFGEQVRHCYLPYDLPWAAARFLDRVRPRLAVIMETELWPNHIHACAVRGIPVALANARLSERSARGYARFAGLTRPMLAELSWIAVQTEAEAERFRRLGARPECVSVTGSIKFDLRIDPQLPLAAAALREEWDATARPLWIAASTHAGEDEIVLAAHRRLLETRPDALLILVPRHPERFAGVHELCRREGFATVRRSGGEPVARATQVLLGDTMGELLFLYALADIAFVGGSLVPNGGHNLLEPAALGKPVFAGPHLFNFLDIAAQLRDAGALLEVTDAGELCDGLARLWAQPEVATAMATAGEKVLRNNQGALERLLAGLARLLGRGG	soluble
MKGYSMAKCLTLNTHSWMEVNALKKLFDLAEHIFREKYDIICLQEVNQSISSPLAKSSPNYHPIEGTPALHQDNFALQLVHYLNLQGLHYHWTWAYNHIGYSKYHEGVAILSLKPLKPEDILVSAVDDETDYHTRRALVAETTLNDKVVTVVSLHFSWFEKGFAEEWKRLETTLLEVETPLLLMGDFNNPTGNQGYELVLNSPLALKDSHQIANHVFGDHTIMADIDGWEGNKKALKVDHIFTSEDLSISSSQVVFEGGEAPVVSDHYGLEITMDF	not soluble
MDFMISHFCDEQNHQPLYKTRRQSISDSKNGPTLLSSSLPTNDECSDSDTENRLPPETELGNIEYKAKLVNPTTSRIQHLITQMKWRLREGQGEAIYEIGVEDGGIMSGLTDEELNDSLRTLRTMAQALGASMVILTEKDVTVKGSNSRRTVVEVLVRKVPESQQFIEVRLAVVGGCDVGKSTLCGVLTQGCLDDGNGKARIGIFRFPHEVRTGKTSSVCNDVIGFDNRGKLVNYAQNSLEEMVEKSSKLVTLIDLAGDAKYQKTTIHGLTGYTPHFACLVVAADRGITWATREHLGLIAALNIPMFVLITKMDLVDRQGLKKIIKDVSNLVAKAGMTAREKRVKTKRDAVKAAQELCVGSIVPVLAVSSVSGEGFRCLRTLLNCLSTAGTAESRIQLVGLPAFFTIEELYNVPHVGQVVGGMLSEGQLHEGADVLVGPMKDGTFEKITVGSIRRSRQAVGCVNPGEAASISLNLPDGVSLRRGMVLAEIDHQPPVCYEFTANLLLLCHSTKYICEGFQATVFIGSVCTTAIITHIDDADCIRPGKWAVVKMCFAYQPEVIREGSPIILRQGKTKGMGEVLKVFPCTQ	not soluble
MGSDKIHHHHHHMAYLDNIAVFVRVVELGNLSAAGRDMRISPAVASNRIKELEKHLGVRLFNRTTRQLMPTEHGTVFYSGAKQVLEAITEAEAAVSALSGQPRGTIRVTAPLGLGRRLVASGIPDFHDKYPDIEVRLRLSDHNVDIMKEGIDVAFRLGIIEDSSLRMRGIMECERVLVAAPKYLEARGEPAEPQELIGKKHDCLMLRYSGAREYVWTLQTPTGPQKFEVHGPYDTDDGDVLTGWALSGRGIINKPRFEVEPFIRDRRLQVILANTPPTPVQFAAVYPHKKLQDPKVRLLLDFMAERCQRLIKDILAGK	not soluble
QGFSQEKYAHNALNRRGFIELKSQARGQISTGGQVLAESYQDEEGFYQRRYVTNPAIYGPIEGYLSDIYGASGMESNLNGVLSGTDSSVSVRRWTDELLGRKHSGANVELTLLPQVQEVAYNQMANAGYEGAVVAIKPSTGEILAMASTPSYDPSAIVNPDTAEQTWAALNADPGNPLLNHATQETLPPGSTFK	not soluble
MRVAIFTDTFTPQVNGVAKTLERLTRYFQKENIAYSVFAPQHTAEDNFVANVNKMRSIPLTILYPECRFSFPTPRIKRELLSFKPDIIHIATPFNMGLCGLYYAKKLNIPVVGSYHTDFDAYLRYYKIEFLSNMLWNYLKWFHSHMQKNFVPSPETLHQLKHKGFQALSIWGRGVDCNLFHPAYNTDLFRKKYNITAKYVLSYIGRIAPEKDIDTLQNLIVKSTHTRNDIHWLIAGDGPLATNLRETVPQTNVTFTGYLQGGDLAEAYACSNLMVFPSATETFGNVVLESLACGTPVIGANSGGVKNIITDGKTGVLCPPKNEDAFLSSIYFLLQNEEKLKQMGIAALSYAKSKSWDEIFRGLLNEYEEVLQHNASELLALEHHHHHH	not soluble
MPIVYYDGNCIYCYNYVIWLIQHDLPRNYQFATLKGEVGQQFFKQHPEAANKNSVILQKGDCIYFESQAIIKLITALPNRTKLLGVGLWLVPKPVRNFGYRMFANNRNRMWKTTWHQPNDYEKSFFLDDNAKVKLTDLEHHHHHH	soluble
QSKTATVFLHGYNGGAYSTNYLIRKAEKAGAAQKALVVHVYKNGVMAFKGYWQKSIKNPMVQVVFQDNHASQKAQIYWLHQVLVQLKAKYGVKAYNAVGHSLGANDIVNQALKYGHDKRLPTLNKIVTIGGPFDGLTGFLSTQTEATVRRLDVKPSRFTKHFSEMLKYRHNFPDNVKLLNVYGDTNTGYNNDGFVGVASARSIRYLLRGKLTQYQEAFYSGEQAAHCALNQNPSVAHKMIAFLW	not soluble
YEKYRWSISRSGYLIILGRDASQNESIVKKYLRDKDIFLHADIIGAPATIIITQDNKTISEEDIYDAAVMAASYSKAWKVGLASVDIFWVLGNQVSKSPPSGEYLNK	not soluble
DEILIDPHAVLGPVDPQLMNYPAPSILKVVEKKEPKDIDDKTLIMADIAEKAINQVRETVFNLLKDKMDEEKAREVAKILTEGRWTHDYPLTVEELRQLGLKVSTDVPEEVYELMELYPQPMMQRHPGVEFVPSPPKGEKPSFK	not soluble
MKFLHTADLHLGKIVSGVSMLAEQEYILAQITKIAEEEQVDALILAGDLYDRAVPPADAVKVLNDILVKWNVELGIPIFAISGNHDSAERLAFGSQWYESSKLYMKGKCTSQFEAISFMDAEVWLVPYHEPAIIREAFADNSIRSFEDAMQAVTKQIRSKWDTSKAQILVGHAFVSGGIPSDSERQLAIGNVDRVSTDCFDGFTYTALGHLHHPHAIRHPSIFYSGSPLKYSFSEANDHKSVRIVELEGKELVSVTERFLTPKHDMRIISGTLAELTENLVENPDDFFQVNLMDEGALIDPMGKLRQFYPNILHLERKKQTLKETQDNFEEIMKKDDLELFGQFFEHVNGTELTETQKQKLADVFEQARKEDAE	not soluble
DGTVLPGPVPVTVAVRAPGDENDEDASGEASTPNAVRPRTSCRRDRFVAGIVRGTFHPDLYMCSQDCITFKGKRIGRSKFEKLGNSSMAKWHRSIRVIREDGELEPLGEWLTRHGLPVLKGKQRISRKRTIRI	not soluble
MGSDKIHHHHHHMSRTLVLFDIDGTLLKVESMNRRVLADALIEVYGTEGSTGSHDFSGKMDGAIIYEVLSNVGLERAEIADKFDKAKETYIALFRERARREDITLLEGVRELLDALSSRSDVLLGLLTGNFEASGRHKLKLPGIDHYFPFGAFADDALDRNELPHIALERARRMTGANYSPSQIVIIGDTEHDIRCARELDARSIAVATGNFTMEELARHKPGTLFKNFAETDEVLASILTPKHS	not soluble
LINETSRRLNQRLTLTDTMNDLAVRMAESFQAEEVGFFHIDHFENLTLLPGSTAFFKEAKPSDFYNELKEKLYEGEKGVFIGNGQSVFGKAGYGSLMAAPMIQNDRLLGFAVLLKQELYAFTFEMYKLFQALIHHATLAVTNSMLRDRLE	soluble
MSLTPFGVRSVVFDPDKGLVINGEHVPIRGVNNHHDLGALGAAFNVRAAERQLQLLQQMGANAIRMSHNPPAPELLELTDRMGLLVVDEVFDSWEMKKTPLDFHLIFPQWHEPDLRAMLRRDRNHPSIILWSVGNEVGEQYTGEAGAAIARRLHAIVHAEDPTRPATAAMNYASPEMPLPAALDVISLNYQGEGIRDTPEFEGTERIRKPPQYPAFHAKFPRKAILSSETASALSSRGVYLFPVSAQSSAPVRDGRGGDSVAHQVSAYELHAVDFGSSADKVFAALDRHPFVAGEFVWTGFDYLGEPTPYYSSRSSYSGILDLAGFPKDRYWLYQARWRPELPMAHLLPHWSWPGREGQVTPVHVFTSGDEAELFVNGVSQGRKRKAPLQYRLRWDAVVYQPGELRVQAYKHGRPWASDRVQTAGRATRMQLSADRNQIRGDGKDLSFITVRLLDADGRPAPTAGDRLRFRVEGAGELVATDNGDPTNLEAFVLPEREGHHHHHH	soluble
MAHHHHHHMGVGFQSKKLQNFCHSGAGEMCALENCIPRWGSFPCNAPGLTPVYELSSFENVELPLIFQKSNIGDLLASTSDSVGQLNGFQARHSNTEGIKSQVSYTSVALSTTNRENLFGWVDCAALPLCSSSTAGASILLVTLLTRESRGKSCMCILDDLVCQLSNGPFNWGCGGDCHDLISISLPSEPRNHAACPIILPIAKLSRKEIWLREAAPKMDVETIIYEGDNQQHLVDDVANGTNAGSCAVMEAGCRPETALGPENVKYGDNESVTQCEVTVDITPSTEPSARCLHFSECTTPVSSNRSFMEPIPLSNMESKALRCRKFDGTSYEVLRRRAHSDALSLILKKYSEHF	not soluble
MAHHHHHHMYLHLIKNSTAKTPQLYTAKDNSKTAMHLLTRRAANANYTVNRWYLKEKVDSSNRMRLEGLYECVLCASCTGSCPQYWWNREHFLGPAVLLQSYRWLVEPLDRDFDERVRMFETGNLVNMCHNIFNCSITCPKFLNPGLASKEIKRLSSPSTKRVGPAIEMEPVTSGKEAGKRSLLQRL	soluble
MTDYPSIFEPLTVKRMTIKNRVIMPPMGTNLAGLNGEFLEEHMNYYEQRAKGGTGLITIENACVDFPYGTNGTTQLRIDNDQYIPGFYKLTERLHKHGTCVSIQINHAGASAYPARLNGLQPVSASDIPSKKGGTVPRPLTVEEIYEIVNKYGDAARRAQQAGFDAVEIHGGHSYLLCQFLSPLYNKRTDEFGGTPENRARIVKLILEKVRAEVGPFFPIVLRFSADEFTEGGNHLEDILELLDYCQEEADILNVSAAINDNLYLQIDQMNLEDGWRSYLAKAVKDKFNKPTITSGNIRSPKAAEKILSEGYADLLAMGRGLIAEPNWVNKVATGQEDMLRKCISCNIGCADHRISKSKPIRCTVNPDIIHEDKYKETKVTRPTNVVVIGGGTAGLEAACTAAEVGCNTTLIEANEQTGGLARAIANLPDKSRIADFPNYLANRAEKLTNLKVITGTKADTALIDTFNPDVVVNATGSKPLLPPIKGLLDVIDKEGSKVHSIFGLISNIDDFTEFSNKKVAVIGGGAVGLDVVEYFSERGSDVTIVEMMPLLGKDLDMITRLSMMDIIEKNHVDVQTETALTEVAADHFKVKHDGVDAEIPFDYGFVCLGMRPERPLMEELAAYGKEKQIEIVNIGDSAATRKILEGVREGRNILTTLEKIGSL	not soluble
MSLKNTTIADVAAAADVSVTTVSRYLNGNYQKMSAATKQRIKETIATLHYAPKASARKMRQDHSQLIGVVVGDIANVFSSLLFKGIYDVLQPAGYDVLLMNANNTATTEHGELTRLAAQQVDGIILQPSAATAAAYAGLTIPTIIVDRQLPNSPLAQVLSSNFDASYQLGQHLREQGYRRLITVGRAVAPHTAQTDRLAGLTATGLSVIHLDMTSHGAPWLTQQLRQYQQAPDKPVIISLMGPLLFEILASLKAAHLHFPADVGLVSFDDWQWSQYVNDGIYLLQQQPALMGQLAATTLLHQLSTTPTTMTQYVPVAPVVKPSLEGHHHHHH	not soluble
MVVNTHRVPSVDVLLDVITERIGLINGAKKLYTTSGTLVKDINKIKDGQNYVASSSHFTPAAYGGQHQPIQKEVKLKKKKKKRSQTVQPRKTEHIELGDEISIPLNEPVVLEKKKKKKKKLVQKNLDLHGSIETLAETAEIELPSEIEDSEEEDEHEHRRSATPDHHRPATKHSVAPSRASSRRGSRRDEEKREEEDEERKKKDEKKRKSVSSSRRKSQAQHHGQPNWGDLSSFTKNIESLLKN	not soluble
